# Reference: paper PMC4231051, “Protein Thermal Stability Enhancement by Designing Salt Bridges: A Combined Computational and Experimental Study” (PLoS ONE, 2014)
# Molecular target: the molecule itself
# Assay: SEC; gel filtration during purification (HiLoad 26/60 Superdex 200 prep-grade), 50 mM citrate phosphate buffer, pH 7; data not shown
row,Protein,stoichiometry N
1,"β-glucosidase A (BglA) from Bacillus polymyxa, wild type (enzyme, β-glucosidase A (BglA, EC 3.2.1.21) from Bacillus polymyxa, family 1 glycosyl hydrolase; Plasmid pBglA; its vector and construct limits are not described; also called wild type enzyme; source: E. coli BL21 Star (DE3), purified (HisTrap, thrombin, HisTrap, gel filtration on Superdex 200)) TIFQFPQDFMWGTATAAYQIEGAYQEDGRGLSIWDTFAHTPGKVFNGDNGNVACDSYHRYEEDIRLMKELGIRTYRFSVSWPRIFPNGDGEVNQEGLDYYHRVVDLLNDNGIEPFCTLYHWDLPQALQDAGGWGNRRTIQAFVQFAETMFREFHGKIQHWLTFNEPWCIAFLSNMLGVHAPGLTNLQTAIDVGHHLLVAHGLSVRRFRELGTSGQIGIAPNVSWAVPYSTSEEDKAACARTISLHSDWFLQPIYQGSYPQFLVDWFAEQGATVPIQDGDMDIIGEPIDMIGINYYSMSVNRFNPEAGFLQSEEINMGLPVTDIGWPVESRGLYEVLHYLQKYGNIDIYITENGACINDEVVNGKVQDDRRISYMQQHLVQVHRTIHDGLHVKGYMAWSLLDNFEWAEGYNMRFGMIHVDFRTQVRTPKESYYWYRNVVSNNWLETRR",8
2,"β-glucosidase A (BglA) from Bacillus polymyxa, N437E mutant (enzyme, β-glucosidase A (BglA, EC 3.2.1.21) from Bacillus polymyxa with N437E, made by site-directed mutagenesis of pBglA; Same construct as m1 apart from the mutation; source: E. coli BL21 Star (DE3), purified (HisTrap, thrombin, HisTrap, gel filtration on Superdex 200)) TIFQFPQDFMWGTATAAYQIEGAYQEDGRGLSIWDTFAHTPGKVFNGDNGNVACDSYHRYEEDIRLMKELGIRTYRFSVSWPRIFPNGDGEVNQEGLDYYHRVVDLLNDNGIEPFCTLYHWDLPQALQDAGGWGNRRTIQAFVQFAETMFREFHGKIQHWLTFNEPWCIAFLSNMLGVHAPGLTNLQTAIDVGHHLLVAHGLSVRRFRELGTSGQIGIAPNVSWAVPYSTSEEDKAACARTISLHSDWFLQPIYQGSYPQFLVDWFAEQGATVPIQDGDMDIIGEPIDMIGINYYSMSVNRFNPEAGFLQSEEINMGLPVTDIGWPVESRGLYEVLHYLQKYGNIDIYITENGACINDEVVNGKVQDDRRISYMQQHLVQVHRTIHDGLHVKGYMAWSLLDNFEWAEGYNMRFGMIHVDFRTQVRTPKESYYWYREVVSNNWLETRR",4
3,"β-glucosidase A (BglA) from Bacillus polymyxa, N437D mutant (enzyme, β-glucosidase A (BglA, EC 3.2.1.21) from Bacillus polymyxa with N437D, made by site-directed mutagenesis of pBglA; Same construct as m1 apart from the mutation; source: E. coli BL21 Star (DE3), purified (HisTrap, thrombin, HisTrap, gel filtration on Superdex 200)) TIFQFPQDFMWGTATAAYQIEGAYQEDGRGLSIWDTFAHTPGKVFNGDNGNVACDSYHRYEEDIRLMKELGIRTYRFSVSWPRIFPNGDGEVNQEGLDYYHRVVDLLNDNGIEPFCTLYHWDLPQALQDAGGWGNRRTIQAFVQFAETMFREFHGKIQHWLTFNEPWCIAFLSNMLGVHAPGLTNLQTAIDVGHHLLVAHGLSVRRFRELGTSGQIGIAPNVSWAVPYSTSEEDKAACARTISLHSDWFLQPIYQGSYPQFLVDWFAEQGATVPIQDGDMDIIGEPIDMIGINYYSMSVNRFNPEAGFLQSEEINMGLPVTDIGWPVESRGLYEVLHYLQKYGNIDIYITENGACINDEVVNGKVQDDRRISYMQQHLVQVHRTIHDGLHVKGYMAWSLLDNFEWAEGYNMRFGMIHVDFRTQVRTPKESYYWYRDVVSNNWLETRR",4
